Results on 65 substances are retold here after patent US20170002055A1, “Novel peptides and combination of peptides for use in immunotherapy against ovarian cancer and other cancers” (immatics biotechnologies GmbH, priority 2015, published 2017).

The assay deals with HLA-A*02:01 (Homo sapiens, UniProt P04439, D140Y/D185E/D98H/E176V/E277Q/G131W/G231S/I119V/I121R/I166T/I218V/L300P/L318F/N151K/N90K/P208A/P217A/Q86G/Q94H/R138H/R169H/T345S). The assay is described as follows: MHC binding assay (UV-ligand exchange, β2m ELISA, peptide exchange yield). As to conditions: MHC class I binding score; binding to HLA-A*02:01 ranged by peptide exchange yield (UV-ligand exchange, β2m ELISA). An excerpt: Candidate peptides for T cell based therapies according to the present invention were further tested for their MHC binding capacity (affinity). The individual peptide-MHC complexes were produced by UV-ligand exchange, where a UV-sensitive peptide is cleaved upon UV-irradiation, and exchanged with the peptide of interest as analyzed. Only peptide candidates that can effectively bind and stabilize the peptide-receptive MHC molecules prevent dissociation of the MHC complexes. To determine the yield of the exchange reaction, an ELISA was performed based on the detection of the light chain (β2m) of stabilized MHC complexes. The assay was performed as generally described in Rodenko et al. (Rodenko et al., 2006).
96 well MAXISorp plates (NUNC) were coated over night with 2 ug/ml streptavidin in PBS at room temperature, washed 4× and blocked for 1h at 37° C. in 2% BSA containing blocking buffer. […] Peptide-MHC monomers of the UV-exchange reaction were diluted 100 fold in blocking buffer. Samples were incubated for 1h at 37° C., washed four times, incubated with 2 ug/ml HRP conjugated anti-β2m for 1h at 37° C., washed again and detected with TMB solution that is stopped with […]. Absorption was measured at 450 nm. Candidate peptides that show a high exchange yield (preferably higher than 50%, most preferred higher than 75%) are generally preferred for a generation and production of antibodies or fragments thereof, and/or T cell receptors or fragments thereof, as they show sufficient avidity to the MHC molecules and prevent dissociation of the MHC complexes.
“74 (ALLDPEVLSIFV; listed as Homo sapiens) [compound 74]”: the Peptide exchange result is ““+++” (≧50 = +++)”. To “75 (GLLEVMVNL; listed as Homo sapiens) [compound 75]” belongs ““+++” (≧50 = +++)”. Regarding “76 (ILIDSIYKV; listed as Homo sapiens) [compound 76]”, the Peptide exchange entry is ““+++” (≧50 = +++)”. Consider “77 (ILVEADGAWVV; listed as Homo sapiens) [compound 77]”, for which the Peptide exchange entry is ““++++” (≧75% = ++++)”.

For the substance “78 (SLFSSLEPQIQPV; listed as Homo sapiens) [compound 78]”, the Peptide exchange result was ““+++” (≧50 = +++)”. For “80 (FLYDNLVESL; listed as Homo sapiens) [compound 80]”, the Peptide exchange entry is listed as ““++” (≧20% = ++)”. For the substance “81 (FLFSQLQYL; listed as Homo sapiens) [compound 81]”, the Peptide exchange result is on record as ““++” (≧20% = ++)”. To “82 (FLSSVTYNL; listed as Homo sapiens) [compound 82]” belongs ““+++” (≧50 = +++)”.

Regarding “83 (ILAPTVMMI; listed as Homo sapiens) [compound 83]”, the Peptide exchange result is on record as ““+++” (≧50 = +++)”.

For “84 (VTFGEKLLGV; listed as Homo sapiens) [compound 84]”, the Peptide exchange entry is recorded as ““++” (≧20% = ++)”.

“85 (KMSELRVTL; listed as Homo sapiens) [compound 85]”: the Peptide exchange result was ““+++” (≧50 = +++)”. Consider “86 (NLIGKIENV; listed as Homo sapiens) [compound 86]”, for which the Peptide exchange result is ““+++” (≧50 = +++)”. In the case of “87 (ALPEAPAPLLPHIT; listed as Homo sapiens) [compound 87]”, the Peptide exchange entry is ““++” (≧20% = ++)”.

In the case of “88 (FLLVGDLMAV; listed as Homo sapiens) [compound 88]”, the Peptide exchange entry is reported as ““+++” (≧50 = +++)”. For the substance “89 (YILPTETIYV; listed as Homo sapiens) [compound 89]”, the Peptide exchange entry is listed as ““++++” (≧75% = ++++)”.

As for “90 (TLLQIIETV; listed as Homo sapiens) [compound 90]”, the Peptide exchange entry is reported as ““+++” (≧50 = +++)”. In the case of “91 (IMQDFPAEIFL; listed as Homo sapiens) [compound 91]”, the Peptide exchange result is ““++++” (≧75% = ++++)”. As for “92 (YLIPFTGIVGL; listed as Homo sapiens) [compound 92]”, the Peptide exchange entry is listed as ““++” (≧20% = ++)”. Take “93 (LLQAIKLYL; listed as Homo sapiens) [compound 93]”: the Peptide exchange result is listed as ““++” (≧20% = ++)”. Turning to “94 (YLIDIKTIAI; listed as Homo sapiens) [compound 94]”, the Peptide exchange result is ““++” (≧20% = ++)”. In the case of “95 (SVIPQIQKV; listed as Homo sapiens) [compound 95]”, the Peptide exchange result is reported as ““+++” (≧50 = +++)”. “96 (YIFTDNPAAV; listed as Homo sapiens) [compound 96]”: the Peptide exchange entry is reported as ““+++” (≧50 = +++)”. In the case of “97 (SLINGSFLV; listed as Homo sapiens) [compound 97]”, the Peptide exchange result is ““+++” (≧50 = +++)”. With “98 (LIIDQADIYL; listed as Homo sapiens) [compound 98]”, the Peptide exchange result was ““+++” (≧50 = +++)”. To “99 (ALVSKGLATV; listed as Homo sapiens) [compound 99]” belongs ““++” (≧20% = ++)”; to “100 (YLLSTNAQL; listed as Homo sapiens) [compound 100]”, ““++++” (≧75% = ++++)”; to “101 (ILVGGGALATV; listed as Homo sapiens) [compound 101]”, ““+++” (≧50 = +++)”. Turning to “102 (YLFESEGLVL; listed as Homo sapiens) [compound 102]”, the Peptide exchange result is given as ““+++” (≧50 = +++)”. On to “103 (TLAEEVVAL; listed as Homo sapiens) [compound 103]”, for which the Peptide exchange result is ““+++” (≧50 = +++)”. To “104 (STMEQNFLL; listed as Homo sapiens) [compound 104]” belongs ““++++” (≧75% = ++++)”; to “106 (LLYDAVHIVSV; listed as Homo sapiens) [compound 106]”, ““+++” (≧50 = +++)”.

As to “107 (FLQPVDDTQHL; listed as Homo sapiens) [compound 107]”, the Peptide exchange result was ““+++” (≧50 = +++)”. To “109 (IILSILEQA; listed as Homo sapiens) [compound 109]” belongs ““++++” (≧75% = ++++)”. Take “110 (FLSQVDFEL; listed as Homo sapiens) [compound 110]”: the Peptide exchange entry is recorded as ““+++” (≧50 = +++)”.

For “111 (YVWGFYPAEV; listed as Homo sapiens) [compound 111]”, the Peptide exchange entry is ““+++” (≧50 = +++)”. For the substance “114 (SLVGEPILQNV; listed as Homo sapiens) [compound 114]”, the Peptide exchange entry is ““++” (≧20% = ++)”.

For the substance “115 (AIAGAGILYGV; listed as Homo sapiens) [compound 115]”, the Peptide exchange result is reported as ““++” (≧20% = ++)”. The result for “116 (YHIDEEVGF; listed as Homo sapiens) [compound 116]” reads ““+” (≧10% = +)”; that for “117 (ILPDGEDFLAV; listed as Homo sapiens) [compound 117]”, ““+++” (≧50 = +++)”; that for “119 (FLYIGDIVSL; listed as Homo sapiens) [compound 119]”, ““++++” (≧75% = ++++)”.

Take “120 (ALLGIPLTLV; listed as Homo sapiens) [compound 120]”: the Peptide exchange entry is ““+++” (≧50 = +++)”.

For the substance “121 (GVVDPRAISVL; listed as Homo sapiens) [compound 121]”, the Peptide exchange entry is ““++” (≧20% = ++)”. Consider “122 (FLLAEDDIYL; listed as Homo sapiens) [compound 122]”, for which the Peptide exchange result is ““+++” (≧50 = +++)”. “123 (NLWDLTDASVV; listed as Homo sapiens) [compound 123]”: the Peptide exchange result was ““+++” (≧50 = +++)”. “124 (ALYETELADA; listed as Homo sapiens) [compound 124]”: the Peptide exchange entry is ““++” (≧20% = ++)”. The result for “125 (VQIHQVAQV; listed as Homo sapiens) [compound 125]” reads ““+++” (≧50 = +++)”; that for “126 (VLAYFLPEA; listed as Homo sapiens) [compound 126]”, ““++++” (≧75% = ++++)”; that for “127 (KIGDEPPKV; listed as Homo sapiens) [compound 127]”, ““++” (≧20% = ++)”. “128 (YLFDDPLSAV; listed as Homo sapiens) [compound 128]”: the Peptide exchange result is ““++” (≧20% = ++)”. The result for “129 (GLLDGGVDILL; listed as Homo sapiens) [compound 129]” reads ““+++” (≧50 = +++)”.

With “130 (FLWNGEDSALL; listed as Homo sapiens) [compound 130]”, the Peptide exchange entry is reported as ““+++” (≧50 = +++)”. With “131 (FVPPVTVFPSL; listed as Homo sapiens) [compound 131]”, the Peptide exchange result is ““++” (≧20% = ++)”. To “132 (LLVEQPPLAGV; listed as Homo sapiens) [compound 132]” belongs ““+++” (≧50 = +++)”; to “133 (KVLSNIHTV; listed as Homo sapiens) [compound 133]”, ““++” (≧20% = ++)”; to “134 (YLQELIFSV; listed as Homo sapiens) [compound 134]”, ““+++” (≧50 = +++)”.

Regarding “135 (ALSEVDFQL; listed as Homo sapiens) [compound 135]”, the Peptide exchange result is given as ““+++” (≧50 = +++)”. Take “136 (YLADPSNLFVV; listed as Homo sapiens) [compound 136]”: the Peptide exchange entry is reported as ““+++” (≧50 = +++)”. The result for “137 (TLVLTLPTV; listed as Homo sapiens) [compound 137]” reads ““++++” (≧75% = ++++)”; that for “138 (YQYPRAILSV; listed as Homo sapiens) [compound 138]”, ““+++” (≧50 = +++)”; that for “139 (SVMEVNSGIYRV; listed as Homo sapiens) [compound 139]”, ““+++” (≧50 = +++)”. To “140 (YMDAPKAAL; listed as Homo sapiens) [compound 140]” belongs ““++” (≧20% = ++)”. Turning to “142 (FLFATPVFI; listed as Homo sapiens) [compound 142]”, the Peptide exchange entry is listed as ““+++” (≧50 = +++)”.

On to “144 (YIMEPSIFNTL; listed as Homo sapiens) [compound 144]”, for which the Peptide exchange result is reported as ““+++” (≧50 = +++)”. Consider “145 (FLATSGTLAGI; listed as Homo sapiens) [compound 145]”, for which the Peptide exchange result is ““++” (≧20% = ++)”. For “146 (SLATAGDGLIEL; listed as Homo sapiens) [compound 146]”, the Peptide exchange entry is given as ““++” (≧20% = ++)”.
